Like-named read-outs stand apart in the source and are kept apart here.
What was measured:
IL-4R on HEK-Blue cells [1] = target: T1, IL-4R on HEK-Blue cells (human, UniProt P24394 26-825); experiment: cell-based or functional assay
cynomolgus IL-4R-Fc [2] = target: T2, cynomolgus IL-4R-Fc (cynomolgus monkey (Macaca fascicularis), UniProt A0A2K5V580 33-239); experiment: SPR, capture setup: cynomolgus IL-4R-Fc captured, scFv as analyte
T2 construct: also called cynomolgus IL-4R (capture setup); not shown: Fc part

Biotinylated IL-4R [3] = target: T3, Biotinylated IL-4R (human, UniProt P24394 26-232, limits assumed, biotinylated); experiment: competitive ELISA: IL-4 coated, biotinylated IL-4R preincubated with scFv
T3 construct: also called human IL-4R; hIL-4R
From the text: (§1) Bound biotinylated IL-4R was then detected using streptavidin-HRP.

Human IL-4R-Fc [4] = target: T4, Human IL-4R-Fc (human, UniProt P24394 26-232); experiment: SPR (Biacore T200), human IL-4R-Fc captured, scFv as analyte 0.12 to 90 nM, 1:1 model
T4 construct: not shown: Fc part (captured via anti-human IgG-Fc)
Description: (§2) Affinity of the 16 humanized scFvs (derived from 5 rabbit monoclonal antibodies) to human IL-4R was determined by SPR analysis on a T200 device (Biacore, GE Healthcare). Human IL-4R-Fc was captured via an anti-human IgG-Fc coupled to a carboxylmethylated dextran surface and the scFvs were injected as analyte. After each analyte injection cycle the sensor chip was regenerated and new antigen was captured. The scFvs were measured using a dose response multi-cycle kinetic assay with seven analyte concentrations ranging from 0.12 to 90 nM diluted in running buffer. Obtained sensorgrams were fitted using a 1:1 binding model.
The scFvs were measured using a dose response multi-cycle kinetic assay with seven analyte concentrations ranging from 0.12 to 90 nM diluted in running buffer. Obtained sensorgrams were fitted using a 1:1 binding model.

IL-4R on HEK-Blue cells [5] = target: T1, IL-4R on HEK-Blue cells; experiment: cell-based or functional assay; remark: listed apart in the source
cynomolgus IL-4R-Fc [6] = target: T2, cynomolgus IL-4R-Fc; experiment: SPR, capture setup: cynomolgus IL-4R-Fc captured, scFv as analyte; remark: listed apart in the source
Description: as §2
(§3) Cross-reactivity to cynomolgus IL-4R was measured using the same setup as for the analysis of human IL-4R affinities, with the difference that cynomolgus IL-4R-Fc was captured instead of human IL-4R-Fc. To determine affinities for marmoset IL-4R, a direct setup was used since only extracellular domain (ECD) of marmoset IL-4R was available. Marmoset ECD was immobilized directly onto the sensor chip and a titration series of scFvs was injected as analyte. To allow for comparison between KD values obtained for cynomolgus and marmoset IL-4R, affinities to cynomolgus IL-4R ECD were also determined using a direct setup.

Marmoset IL-4R ECD = target: T5, Marmoset IL-4R ECD (marmoset (Callithrix jacchus), UniProt Q0PIT7 26-232); experiment: SPR, direct setup: marmoset IL-4R ECD immobilized, scFv as analyte
T5 construct: also called marmoset monkey IL-4R
T5 sequence (Q0PIT7 entry or part of it limits assumed): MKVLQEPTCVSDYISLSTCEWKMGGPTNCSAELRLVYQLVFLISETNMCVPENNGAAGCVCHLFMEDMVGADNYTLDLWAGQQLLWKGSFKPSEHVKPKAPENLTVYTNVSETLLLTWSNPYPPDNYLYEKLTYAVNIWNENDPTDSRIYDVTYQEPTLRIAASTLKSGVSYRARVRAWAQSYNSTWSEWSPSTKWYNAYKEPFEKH
Description: as §3

cynomolgus IL-4R ECD = target: T6, cynomolgus IL-4R ECD (cynomolgus monkey (Macaca fascicularis), UniProt A0A2K5V556 26-232); experiment: SPR, direct setup: cynomolgus IL-4R ECD immobilized, scFv as analyte
T6 construct: immobilized directly on the sensor chip; also called cynomolgus IL-4R (direct setup)
T6 sequence (A0A2K5V556 entry or part of it limits assumed): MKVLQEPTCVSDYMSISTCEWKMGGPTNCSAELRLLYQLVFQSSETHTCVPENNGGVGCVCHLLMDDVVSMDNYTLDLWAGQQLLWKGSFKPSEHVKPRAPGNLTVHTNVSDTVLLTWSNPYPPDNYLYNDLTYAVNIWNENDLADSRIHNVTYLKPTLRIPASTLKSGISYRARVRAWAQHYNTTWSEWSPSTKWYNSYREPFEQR
Description: as §3

Biotinylated IL-4R [7] = target: T3, Biotinylated IL-4R; experiment: competitive ELISA: IL-4 coated, biotinylated IL-4R preincubated with scFv; remark: listed apart in the source
From the text: as §1
Potency of humanized scFvs was further determined using a competitive ELISA.

Human IL-4R-Fc [8] = target: T4, Human IL-4R-Fc; experiment: SPR (Biacore T200), human IL-4R-Fc captured via anti-human IgG-Fc, scFv as analyte, 1:1 model
Description: as §2

| IC50, neutralization of hIL-4 induced signaling in reporter gene assay (IL-4R on HEK-Blue cells [1]) [ng/mL] | IC50, neutralization of hIL-13 induced signaling in reporter gene assay (IL-4R on HEK-Blue cells [1]) [ng/mL] | rel. IC50 (IC50, dupilumab/IC50, test sample), hIL-4 induced signaling (IL-4R on HEK-Blue cells [1]) [ratio] | rel. IC50 (IC50, dupilumab/IC50, test sample), hIL-13 induced signaling (IL-4R on HEK-Blue cells [1]) [ratio] | Kd (cynomolgus IL-4R-Fc [2]) [nM] | koff (cynomolgus IL-4R-Fc [2]) [s⁻¹] | kon (cynomolgus IL-4R-Fc [2]) [M⁻¹ s⁻¹] | IC50 (Biotinylated IL-4R [3]) [ng/mL] | rel. IC50 (IC50, dupilumab/IC50, test sample) (Biotinylated IL-4R [3]) [ratio] | Kd (Human IL-4R-Fc [4]) [nM] | koff (Human IL-4R-Fc [4]) [s⁻¹] | kon (Human IL-4R-Fc [4]) [M⁻¹ s⁻¹] | Binder | further results |
| --- | --- | --- | --- | --- | --- | --- | --- | --- | --- | --- | --- | --- | --- |
| 1 | 1.15 | 1.15 | 0.87 | 0.0908 | 0.000109 | 1.2e+06 | 3.41 | 1.95 | 0.00791 | 1.7e-05 | 2.15e+06 | PRO1898 (scFv, optimized variant of PRO1517 (VL S14R, T87R, AHo numbering); scFv VL-linker-VH; also called 44-34-C10-sc08) scFv: DIQMTQSPSSLSARVGDRVTITCQASEDIESYLAWYQQKPGKAPKLLIYRASTLAYGVPSRFSGSGSGRDFTLTISSLQPEDFATYYCLGSSYSTGSNIFGTGTKVTVLGGGGGSGGGGSGGGGSGGGGSEVQLVESGGGLVQPGGSLRLSCAASGFSSSSAHYMCWVRQAPGKGLEWIGCIYAGSRGSTYYASWAKGRFTISRDNSKNTVYLQMNSLRAEDTAVYYCARAAFVNRGVSWIWPYYFSLWGQGTLVTVSS | – |
| – | – | – | – | – | – | – | – | – | – | – | – | PRO1535 (scFv, humanized scFv (VL-linker-VH), Full graft of rabbit clone 44-34-C10; also called 44-34-C10-sc04; 44-34-C10 sc04) scFv: DIQMTQSPSSLSASVGDRVTITCQASEDIESYLAWYQQKPGKPPKLLIYRASTLAYGVPSRFSGSGSGTDFTLTISSLQPEDFATYYCLGSSYSTGSNIFGTGTKVTVLGGGGGSGGGGSGGGGSGGGGSESQLVESGGGLVQPGGSLRLSCAASGFSSSSAHYMCWVRQAPGKGLEWIACIYAGSRGSTYYASWAKGRFTISKDNSKNTVYLQMNSLRAEDTAVYFCARAAFVNRGVSWIWPYYFSLWGQGTLVTVSS | IC50, neutralization of hIL-4-induced signaling in reporter gene assay (IL-4R on HEK-Blue cells [5]): 1.15 ng/mL; IC50, neutralization of hIL-13-induced signaling in reporter gene assay (IL-4R on HEK-Blue cells [5]): 2.3 ng/mL; rel. IC50 (IC50, dupilumab/IC50, test sample), hIL-4-induced signaling (IL-4R on HEK-Blue cells [5]): 1.02 ratio; rel. IC50 (IC50, dupilumab/IC50, test sample), hIL-13-induced signaling (IL-4R on HEK-Blue cells [5]): 0.99 ratio; Kd (cynomolgus IL-4R-Fc [6]): 0.165 nM; koff (cynomolgus IL-4R-Fc [6]): 0.000264 s⁻¹; kon (cynomolgus IL-4R-Fc [6]): 1.6e+06 M⁻¹ s⁻¹; Kd (Marmoset IL-4R ECD): 0.787 nM; koff (Marmoset IL-4R ECD): 0.00254 s⁻¹; kon (Marmoset IL-4R ECD): 3.23e+06 M⁻¹ s⁻¹; Kd (cynomolgus IL-4R ECD): 0.376 nM; koff (cynomolgus IL-4R ECD): 0.000238 s⁻¹; kon (cynomolgus IL-4R ECD): 634000 M⁻¹ s⁻¹; IC50 (Biotinylated IL-4R [7]): 1.92 ng/mL; rel. IC50 (IC50, dupilumab/IC50, test sample) (Biotinylated IL-4R [7]): 0.98 ratio; Kd (Human IL-4R-Fc [8]): 0.0199 nM; koff (Human IL-4R-Fc [8]): 5.42e-05 s⁻¹; kon (Human IL-4R-Fc [8]): 2.72e+06 M⁻¹ s⁻¹ |
| 0.71 | 0.56 | 1.61 | 1.8 | 0.012 | 0.00014 | 1.1e+07 | 2.98 | 2.07 | 0.00692 | 2.04e-05 | 2.95e+06 | PRO1899 (scFv, optimized variant of PRO1517 (VH L12R, V103T, L144Q and RDNSKN changed to KASST, AHo 82-87); scFv VL-linker-VH; also called 44-34-C10-sc09) scFv: DIQMTQSPSSLSASVGDRVTITCQASEDIESYLAWYQQKPGKAPKLLIYRASTLAYGVPSRFSGSGSGTDFTLTISSLQPEDFATYYCLGSSYSTGSNIFGTGTKVTVLGGGGGSGGGGSGGGGSGGGGSEVQLVESGGGRVQPGGSLRLSCAASGFSSSSAHYMCWVRQAPGKGLEWIGCIYAGSRGSTYYASWAKGRFTISKASSTTVYLQMNSLRAEDTATYYCARAAFVNRGVSWIWPYYFSLWGQGTQVTVSS | – |

From US20250282880A1 (NUMAB THERAPEUTICS, published 2025)
